Laboratory results: paper PMC10786891, “Massively parallel profiling of RNA-targeting CRISPR-Cas13d”

Biological target: T1, EsCas13d, nuclease-dead (Eubacterium siraeum, UniProt B0MS50, R295A;H300A;R849A;H854A)
T1 sequence: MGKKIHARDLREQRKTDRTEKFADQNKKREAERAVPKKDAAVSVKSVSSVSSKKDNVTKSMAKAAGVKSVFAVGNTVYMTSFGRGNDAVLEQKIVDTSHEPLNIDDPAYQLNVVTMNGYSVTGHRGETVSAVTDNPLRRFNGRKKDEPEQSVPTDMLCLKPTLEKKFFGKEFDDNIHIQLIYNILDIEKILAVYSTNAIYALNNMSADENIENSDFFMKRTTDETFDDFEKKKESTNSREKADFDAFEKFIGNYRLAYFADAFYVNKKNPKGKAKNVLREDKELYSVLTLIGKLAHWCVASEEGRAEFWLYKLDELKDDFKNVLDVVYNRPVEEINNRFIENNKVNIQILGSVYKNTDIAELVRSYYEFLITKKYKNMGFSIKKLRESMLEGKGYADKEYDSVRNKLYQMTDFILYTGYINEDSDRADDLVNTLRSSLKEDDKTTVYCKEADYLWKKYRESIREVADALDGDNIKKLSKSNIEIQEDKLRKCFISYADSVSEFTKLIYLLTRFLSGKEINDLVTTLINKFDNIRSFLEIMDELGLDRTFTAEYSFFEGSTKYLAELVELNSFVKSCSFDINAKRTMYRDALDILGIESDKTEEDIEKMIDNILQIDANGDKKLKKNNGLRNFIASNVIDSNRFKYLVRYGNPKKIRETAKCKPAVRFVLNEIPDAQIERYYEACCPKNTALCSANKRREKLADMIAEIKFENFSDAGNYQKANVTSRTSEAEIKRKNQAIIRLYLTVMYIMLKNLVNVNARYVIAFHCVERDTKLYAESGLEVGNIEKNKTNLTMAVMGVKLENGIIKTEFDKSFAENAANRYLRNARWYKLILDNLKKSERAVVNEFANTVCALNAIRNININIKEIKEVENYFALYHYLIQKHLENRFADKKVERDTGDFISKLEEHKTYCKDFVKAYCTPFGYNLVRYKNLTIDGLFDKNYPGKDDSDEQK
Assay: crRNA (strand 1, pre-loaded); Mg2+; 40 mM Tris-HCl pH 7.5, 150 mM NaCl, 6 mM MgCl2, 1 mM DTT, 0.1% Tween-20, 0.2 mg/ml BSA; 25 C; 10 min per concentration, then washed
Conditions: tags: His6-TwinStrep-SUMO cleaved; N-terminal SNAP kept (SNAP-Surface 488); label: 3' end held by stalled T7 RNA polymerase

Binder	Kd
target 3 C6A,U8G (mixed) RNA 1: CACCCGUGCAAAAUUGCAGGGGUCUAAAACGACCUGAAUAUUUCAGAUCAAA RNA 2: GGGAAUGGAUCCACAUCUACGAAUUCGUUUUUGAUCUGAAAUAGUAAGGUCUGCAGAUCGGAAGAGCACACGU	65 ± 7.5 nM
target 3 insU 3' of 5 (mixed) RNA 1: CACCCGUGCAAAAUUGCAGGGGUCUAAAACGACCUGAAUAUUUCAGAUCAAA RNA 2: GGGAAUGGAUCCACAUCUACGAAUUCGUUUUUGAUCUGAAAUAUUCAUGGUCUGCAGAUCGGAAGAGCACACGU	6.55 ± 0.65 nM
target 3 G4C,C6A (mixed) RNA 1: CACCCGUGCAAAAUUGCAGGGGUCUAAAACGACCUGAAUAUUUCAGAUCAAA RNA 2: GGGAAUGGAUCCACAUCUACGAAUUCGUUUUUGAUCUGAAAUAUUAACGUCUGCAGAUCGGAAGAGCACACGU	26.6 ± 1.85 nM
target 3 insU 3' of 5,insU 3' of 4 (mixed) RNA 1: CACCCGUGCAAAAUUGCAGGGGUCUAAAACGACCUGAAUAUUUCAGAUCAAA RNA 2: GGGAAUGGAUCCACAUCUACGAAUUCGUUUUUGAUCUGAAAUAUUCAUGUGUCUGCAGAUCGGAAGAGCACACGU	2 ± 0.23 nM
target 3 insA 3' of 22,insU 3' of 3 (mixed) RNA 1: CACCCGUGCAAAAUUGCAGGGGUCUAAAACGACCUGAAUAUUUCAGAUCAAA RNA 2: GGGAAUGGAUCCACAUCUACGAAUUCGUUUAUUGAUCUGAAAUAUUCAGGUUCUGCAGAUCGGAAGAGCACACGU	23.1 ± 3.65 nM
target 3 G3U,A12G (mixed) RNA 1: CACCCGUGCAAAAUUGCAGGGGUCUAAAACGACCUGAAUAUUUCAGAUCAAA RNA 2: GGGAAUGGAUCCACAUCUACGAAUUCGUUUUUGAUCUGAGAUAUUCAGUUCUGCAGAUCGGAAGAGCACACGU	86 ± 15 nM
target 3 insA 3' of 6,insU 3' of 1 (mixed) RNA 1: CACCCGUGCAAAAUUGCAGGGGUCUAAAACGACCUGAAUAUUUCAGAUCAAA RNA 2: GGGAAUGGAUCCACAUCUACGAAUUCGUUUUUGAUCUGAAAUAUUCAAGGUCUUGCAGAUCGGAAGAGCACACGU	31.9 ± 5.8 nM
target 3 insA 3' of 8,insC 3' of 5 (mixed) RNA 1: CACCCGUGCAAAAUUGCAGGGGUCUAAAACGACCUGAAUAUUUCAGAUCAAA RNA 2: GGGAAUGGAUCCACAUCUACGAAUUCGUUUUUGAUCUGAAAUAUAUCACGGUCUGCAGAUCGGAAGAGCACACGU	51 ± 5 nM
target 3 G19U,U20A (mixed) RNA 1: CACCCGUGCAAAAUUGCAGGGGUCUAAAACGACCUGAAUAUUUCAGAUCAAA RNA 2: GGGAAUGGAUCCACAUCUACGAAUUCGUUUUAUAUCUGAAAUAUUCAGGUCUGCAGAUCGGAAGAGCACACGU	90 ± 27 nM
target 1 A9U,C22U (mixed) RNA 1: CACCCGUGCAAAAAUGCAGGGGUCUAAAACUGAGCGGAUAACCUCUCUAUGG RNA 2: GGGAAUGGAUCCACAUCUACGAAUUCGUAUCAUAGAGAGGUUUUCCGCUCACCGAGAUCGGAAGAGCACACGU	24 ± 4 nM
target 3 insA 3' of 14,insU 3' of 4 (mixed) RNA 1: CACCCGUGCAAAAUUGCAGGGGUCUAAAACGACCUGAAUAUUUCAGAUCAAA RNA 2: GGGAAUGGAUCCACAUCUACGAAUUCGUUUUUGAUCUGAAAAUAUUCAGUGUCUGCAGAUCGGAAGAGCACACGU	43.5 ± 14.5 nM
target 3 C6G,U8A (mixed) RNA 1: CACCCGUGCAAAAUUGCAGGGGUCUAAAACGACCUGAAUAUUUCAGAUCAAA RNA 2: GGGAAUGGAUCCACAUCUACGAAUUCGUUUUUGAUCUGAAAUAAUGAGGUCUGCAGAUCGGAAGAGCACACGU	81.5 ± 10 nM
target 3 A5U,A18G (mixed) RNA 1: CACCCGUGCAAAAUUGCAGGGGUCUAAAACGACCUGAAUAUUUCAGAUCAAA RNA 2: GGGAAUGGAUCCACAUCUACGAAUUCGUUUUUGGUCUGAAAUAUUCUGGUCUGCAGAUCGGAAGAGCACACGU	117 ± 25 nM
target 3 G3U,U8C (mixed) RNA 1: CACCCGUGCAAAAUUGCAGGGGUCUAAAACGACCUGAAUAUUUCAGAUCAAA RNA 2: GGGAAUGGAUCCACAUCUACGAAUUCGUUUUUGAUCUGAAAUACUCAGUUCUGCAGAUCGGAAGAGCACACGU	103 ± 17.5 nM
target 3 insU 3' of 13,insA 3' of 6 (mixed) RNA 1: CACCCGUGCAAAAUUGCAGGGGUCUAAAACGACCUGAAUAUUUCAGAUCAAA RNA 2: GGGAAUGGAUCCACAUCUACGAAUUCGUUUUUGAUCUGAUAAUAUUCAAGGUCUGCAGAUCGGAAGAGCACACGU	99 ± 25 nM
target 3 insA 3' of 22,insU 3' of 5 (mixed) RNA 1: CACCCGUGCAAAAUUGCAGGGGUCUAAAACGACCUGAAUAUUUCAGAUCAAA RNA 2: GGGAAUGGAUCCACAUCUACGAAUUCGUUUAUUGAUCUGAAAUAUUCAUGGUCUGCAGAUCGGAAGAGCACACGU	11.1 ± 1.15 nM
target 3 A5U,U22C (mixed) RNA 1: CACCCGUGCAAAAUUGCAGGGGUCUAAAACGACCUGAAUAUUUCAGAUCAAA RNA 2: GGGAAUGGAUCCACAUCUACGAAUUCGUUCUUGAUCUGAAAUAUUCUGGUCUGCAGAUCGGAAGAGCACACGU	70.5 ± 20 nM
target 3 A5C,U22C (mixed) RNA 1: CACCCGUGCAAAAUUGCAGGGGUCUAAAACGACCUGAAUAUUUCAGAUCAAA RNA 2: GGGAAUGGAUCCACAUCUACGAAUUCGUUCUUGAUCUGAAAUAUUCCGGUCUGCAGAUCGGAAGAGCACACGU	84 ± 31 nM
target 3 G4U,A12U (mixed) RNA 1: CACCCGUGCAAAAUUGCAGGGGUCUAAAACGACCUGAAUAUUUCAGAUCAAA RNA 2: GGGAAUGGAUCCACAUCUACGAAUUCGUUUUUGAUCUGAUAUAUUCAUGUCUGCAGAUCGGAAGAGCACACGU	52 ± 13.5 nM
target 3 insU 3' of 6,insA 3' of 3 (mixed) RNA 1: CACCCGUGCAAAAUUGCAGGGGUCUAAAACGACCUGAAUAUUUCAGAUCAAA RNA 2: GGGAAUGGAUCCACAUCUACGAAUUCGUUUUUGAUCUGAAAUAUUCUAGGAUCUGCAGAUCGGAAGAGCACACGU	11.2 ± 1.3 nM
target 1 C21A,C22U (mixed) RNA 1: CACCCGUGCAAAAAUGCAGGGGUCUAAAACUGAGCGGAUAACCUCUCUAUGG RNA 2: GGGAAUGGAUCCACAUCUACGAAUUCGUAUAAUAGAGAGGUUAUCCGCUCACCGAGAUCGGAAGAGCACACGU	45 ± 7 nM
target 3 insC 3' of 7,insU 3' of 3 (mixed) RNA 1: CACCCGUGCAAAAUUGCAGGGGUCUAAAACGACCUGAAUAUUUCAGAUCAAA RNA 2: GGGAAUGGAUCCACAUCUACGAAUUCGUUUUUGAUCUGAAAUAUUCCAGGUUCUGCAGAUCGGAAGAGCACACGU	49.5 ± 10 nM
target 3 C1U,U7C (mixed) RNA 1: CACCCGUGCAAAAUUGCAGGGGUCUAAAACGACCUGAAUAUUUCAGAUCAAA RNA 2: GGGAAUGGAUCCACAUCUACGAAUUCGUUUUUGAUCUGAAAUAUCCAGGUUUGCAGAUCGGAAGAGCACACGU	58.5 ± 16 nM
target 3 insA 3' of 15,insC 3' of 11 (mixed) RNA 1: CACCCGUGCAAAAUUGCAGGGGUCUAAAACGACCUGAAUAUUUCAGAUCAAA RNA 2: GGGAAUGGAUCCACAUCUACGAAUUCGUUUUUGAUCUAGAAACUAUUCAGGUCUGCAGAUCGGAAGAGCACACGU	~90 nM
